This note sets out measurements from publication PMC10593741.

The subject of data set [1] is ORC-JF646 (Origin Recognition Complex, HaloTag-JF646 on N-terminus of Orc3) (Saccharomyces cerevisiae). Briefly: single-molecule fluorescence with optical tweezers. The following applies: Bulk loading: 25 mM HEPES-KOH pH 7.6, 10 mM MgOAc, 100 mM KOAc, 0.02% NP40, 5% glycerol, 1 mM DTT, 5 mM ATP or ATPgS, 30 C, single-molecule buffer not …; for binding signal (% of foci in origin bin): 5 nM ORC, 5 s rapid binding, 30 min; for binding signal (% of DNA molecules with ORC): Cdc6, ATP, 30 min stable binding.

Data set [2] has as its system Histone octamer H2A(K120C)-AF488/H2B/H3/H4 (Saccharomyces cerevisiae). Put plainly: single-molecule fluorescence of reconstituted nucleosomes. The following applies: 100 mM KOAc, 0.02% NP40, 5% glycerol, 1 mM DTT, 5 mM ATP or ATPgS, 30 C, single-molecule buffer not ….
The target in data set [3] is H3-H4 tetramer of S. cerevisiae (on DNA: H3-H4 tetrasome) (S. cerevisiae) (UniProt P61830). Briefly: single-molecule photobleaching step counting, fit of a probability model; H2A^AF488 foci, chromatinized ARS1 origin, after 30 min bulk incubation in buffer only.
For data set [4] the target is unchanged. Put plainly: single-molecule photobleaching step counting, fit of a probability model; H2A^AF488 foci, chromatinized ARS1 origin, after 30 min bulk incubation with ORC^JF646 and Cdc6.
The target is the same in data set [5]. Briefly: single-molecule photobleaching step counting, fit of a probability model; H2A^AF488 foci, chromatinized mutated origin, after 30 min bulk incubation with ORC^JF646 and Cdc6.
For data set [6] the target is unchanged. Briefly: single-molecule photobleaching step counting, fit of a probability model; H2A^AF488 foci, chromatinized ARS1 origin, after 30 min bulk incubation with ORC, Cdc6 and MCM^JF646/Cdt1.
Data set [7] shares this target. Put plainly: single-molecule photobleaching step counting, fit of a probability model; H2A^AF488 foci, chromatinized mutated origin, after 30 min bulk incubation with ORC, Cdc6 and MCM^JF646/Cdt1.
For data set [8] the target is unchanged. Briefly: single-molecule photobleaching step counting, fit of a probability model; H2A^AF488 foci at the chromatinized ARS1 origin, imaged immediately after introduction into the flow cell; p_label fixed at 0.81.

Substance 10.4 kbp DNA, ARS1 origin, bare returned a binding signal (% of foci in origin bin) in data set [1] of 30. This substance gave a binding signal (% of DNA molecules with ORC) in data set [1] (61% of foci in origin bin) of 79. Moreover, the binding signal (% of H2A foci in origin bin) in data set [2] (after 30 min with ORC-JF646 and Cdc6, Bulk loading: 25 mM HEPES-KOH pH 7.6, 10 mM MgOAc) stood at 49; in data set [2] (salt-gradient dialysis, after 30 min in buffer, chromatinized form is N2, Bulk loading: 25 mM HEPES-KOH pH 7.6, 10 mM MgOAc), 80.
“10.4 kbp DNA, ARS1 origin, chromatinized (two nucleosomes)” yielded a binding signal (% of foci in origin bin) in data set [1] (nucleosomes) of 39. This substance also gave a binding signal (% of DNA molecules with ORC) in data set [1] (nucleosomes, 51% of foci in origin bin) of 41.
In the case of “H2A^AF488-H2B dimer (S. cerevisiae H2A K120C labelled with AF488, with H2B) (from UniProt P04911 2-132; P02293 5-131) (complex)”, the ph2a (probability of H2A-H2B dimer association with the H3-H4 tetrasome) in data set [3] is 0.73; in data set [4] it was 0.81; in data set [5], 0.6; in data set [6], 0.84; in data set [7], 0.91; in data set [8] it was 0.77.
